From PMC5727262, “Molecular mechanism of K65 acetylation-induced attenuation of Ubc9 and the NDSM interaction” (Scientific Reports, 2017)

B1: GST-RanGAP1_481-587: GST fusion of the sumoylation motif region derived from RanGAP1, sumoylation substrate (protein)
chain: KDEATVRMAVQDAVDALMQKAFNSSSFNSNTFLTRLLVHMGLLKSEDKVKAIANLYGPLMALNHMVQQDYFPKALAPLLLAFVTKPNSALESCSFARHSLLQTLYKV
modifications: left off: GST, end not stated, kept
notes: GST fusion of the sumoylation motif region derived from RanGAP1, sumoylation substrate
B2: GST-Elk1_200-261: GST fusion of the sumoylation motif region derived from Elk1, sumoylation substrate (protein)
chain: SPSPLEACLEAEEAGLPLQVILTPPEAPNLKSEELNVEPGLGRALPPEVKVEGPKEELEVAG
modifications: also: GST fusion partner not in chain
notes: GST fusion of the sumoylation motif region derived from Elk1, sumoylation substrate
B3: GST-CBP1000-1080: GST fusion of the sumoylation motif region derived from CBP, sumoylation substrate (protein)
chain: ETQAEDTEPDPGESKGEPRSEMMEEDLQGASQVKEETDIAEQKSEPMEVDEKKPEVKVEVKEEEESSSNGTASQSTSPSQP
modifications: left off: GST, end not stated, kept
notes: GST fusion of the sumoylation motif region derived from CBP, sumoylation substrate

Tests used:
Ac-Ubc9K65 = target: T1, Ac-Ubc9K65 (Homo sapiens, UniProt P63279); experiment: Multiple-turnover in vitro sumoylation kinetics with Ac-Ubc9K65; type: biochemical; conditions: Michaelis-Menten, SUMO-1 conjugation; for Km: 100 nM Ac-Ubc9K65, 10 μM SUMO-1, 150 nM E1, pH 7.5, SDS-PAGE/SYPRO-RUBY, triplicate; for kcat: 100 nM Ac-Ubc9K65, 10 μM SUMO-1, 150 nM E1, pH 7.5, triplicate
T1 construct: made in house; host or cells: E. coli BL21 (DE3) with pAcKRS-3 and pCDF PylT-1-Ubc9 (amber codon at K65), fed acetyl-lysine
Procedure: (§1) Although the decreased Ubc9 binding to the NDSM substrates on K65 acetylation could explain the reduced levels of NDSM substrate sumoylation, we could not entirely exclude the possibility that K65 acetylation could also affect Ubc9 catalytic activity. To test this possibility, an enzyme kinetics study was performed using multiple-turnover in vitro sumoylation assays between WT or Ac-Ubc9K65 and GST fusion of SM derived from RanGAP1 (Fig. 3A and B), Elk1 (Fig. 3C and D), and CBP (Fig. 3E and F). […] In line with the ITC results, K65 acetylation increased the km values by 1.5–1.7 fold of the NDSM peptides, but not the RanGAP1 SM.
(§2) Figure 3 Effect of K65 acetylation on Ubc9 catalysis. (A) Summary of Michaelis–Menten kinetics applied to SUMO conjugation rates for GST-RanGAP1_481-587 (B and C), GST-Elk1_200-261 (D and E) and GST-CBP1000-1080 (F and G). Experiments performed in triplicate. TEXT PRINTED IN THE PICTURE: (A) RanGAP1: Km (μM): 24.8 ± 1.7 (Ubc9: WT); kcat (min^-1): 4.3 ± 0.1 (Ubc9: WT); Km (μM): 21.0 ± 4.4 (Ubc9: K65-Ac); kcat (min^-1): 4.1 ± 0.3 (Ubc9: K65-Ac) | (A) Elk1: Km (μM): 75.2 ± 5.9 (Ubc9: WT); kcat (min^-1): 3.7 ± 0.5 (Ubc9: WT); Km (μM): 110.7 ± 7.8 (Ubc9: K65-Ac); kcat (min^-1): 4.0 ± 0.2 (Ubc9: K65-Ac) | (A) CBP: Km (μM): 63.8 ± 7.9 (Ubc9: WT); kcat (min^-1): 3.8 ± 0.4 (Ubc9: WT); Km (μM): 111.0 ± 11.6 (Ubc9: K65-Ac); kcat (min^-1): 4.5 ± 0.4 (Ubc9: K65-Ac) | (A) Calpain2: Km (μM): N.D. (Ubc9: WT); kcat (min^-1): N.D. (Ubc9: WT); Km (μM): N.D. (Ubc9: K65-Ac); kcat (min^-1): N.D. (Ubc9: K65-Ac)
(§3) The kinetic analysis[27] was performed in a 40 μl reaction mixture containing 10 μM SUMO-1, 150 nM E1, 100 nM WT or Ac-Ubc9K65, and known quantities of sumoylation substrate dissolved in a buffer containing 20 mM HEPES (pH 7.5), 100 mM NaCl, 5 mM MgCl2, and 2 mM ATP. The samples were subject to SDS-PAGE and visualized by SYPRO-RUBY staining using the UVP Gel-Doc-It system to quantify the sumoylated and non-sumoylated protein bands. Data from triplicate experiments were plotted as a graph of reaction velocity against concentration of the substrate to obtain the Michaelis–Menten constant (km) and the turnover number (kcat).

Ubc9 (WT) = target: T2, Ubc9 (WT) (Homo sapiens, UniProt P63279); experiment: Multiple-turnover in vitro sumoylation kinetics with WT Ubc9; type: biochemical; conditions: Michaelis-Menten, SUMO-1 conjugation; for Km: 100 nM WT Ubc9, 10 μM SUMO-1, 150 nM E1, pH 7.5, SDS-PAGE/SYPRO-RUBY, triplicate; for kcat: 100 nM WT Ubc9, 10 μM SUMO-1, 150 nM E1, pH 7.5, triplicate
T2 construct: made in house; host or cells: E. coli (stated as BL21 (DE3) for the acetylated variant)
Procedure: as §1, §2, §3

T2 sequence (P63279 whole entry): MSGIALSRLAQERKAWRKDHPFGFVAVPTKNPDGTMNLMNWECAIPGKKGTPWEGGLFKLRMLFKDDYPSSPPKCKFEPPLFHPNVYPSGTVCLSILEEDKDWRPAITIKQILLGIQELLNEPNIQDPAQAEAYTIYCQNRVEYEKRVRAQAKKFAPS
T1 sequence (P63279 2-158): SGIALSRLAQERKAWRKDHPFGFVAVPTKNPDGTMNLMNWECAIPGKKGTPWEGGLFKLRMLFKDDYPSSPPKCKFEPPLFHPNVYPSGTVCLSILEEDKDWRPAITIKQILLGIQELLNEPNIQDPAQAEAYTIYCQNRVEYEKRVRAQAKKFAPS

| Molecule | Km (Ac-Ubc9K65) [µM] | kcat (Ac-Ubc9K65) [s⁻¹] | Km (Ubc9 (WT)) [µM] | kcat (Ubc9 (WT)) [s⁻¹] |
| --- | --- | --- | --- | --- |
| B1 | 21 ± 4.4 | 0.0683 ± 0.005 | 24.8 ± 1.7 | 0.0717 ± 0.0017 |
| B2 | 111 ± 7.8 | 0.0667 ± 0.0033 | 75.2 ± 5.9 | 0.0617 ± 0.0083 |
| B3 | 111 ± 11.6 | 0.075 ± 0.0067 | 63.8 ± 7.9 | 0.0633 ± 0.0067 |
